Source: patent publication EP1391213A1

Molecular target: human CD44v6 (CD44 splice variant containing the domain v6) on antigen-positive FaDu cells (human) (UniProt P16070)
Assay: flow cytometry (FACS) on FaDu cells, FITC-labeled anti-human IgG detection, on ice

UniProt P16070, sequence (P16070 21-742, change not shown): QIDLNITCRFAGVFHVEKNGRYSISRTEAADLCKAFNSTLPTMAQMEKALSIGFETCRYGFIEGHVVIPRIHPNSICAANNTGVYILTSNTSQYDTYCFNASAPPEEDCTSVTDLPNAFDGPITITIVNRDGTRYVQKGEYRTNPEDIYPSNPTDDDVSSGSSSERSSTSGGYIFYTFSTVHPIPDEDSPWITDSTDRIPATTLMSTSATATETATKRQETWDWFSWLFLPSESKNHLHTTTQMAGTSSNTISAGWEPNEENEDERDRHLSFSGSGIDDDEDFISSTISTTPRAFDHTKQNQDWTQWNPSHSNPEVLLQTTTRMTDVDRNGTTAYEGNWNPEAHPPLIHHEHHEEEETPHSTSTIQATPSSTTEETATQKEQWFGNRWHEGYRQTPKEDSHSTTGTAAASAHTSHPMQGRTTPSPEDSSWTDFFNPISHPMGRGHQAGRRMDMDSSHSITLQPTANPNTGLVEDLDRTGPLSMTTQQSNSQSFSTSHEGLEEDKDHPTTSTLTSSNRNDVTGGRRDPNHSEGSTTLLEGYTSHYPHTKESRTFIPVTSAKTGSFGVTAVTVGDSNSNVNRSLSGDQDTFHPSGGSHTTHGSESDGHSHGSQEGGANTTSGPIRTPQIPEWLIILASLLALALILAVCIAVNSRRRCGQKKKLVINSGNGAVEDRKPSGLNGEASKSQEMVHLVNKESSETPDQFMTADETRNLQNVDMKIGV

| Kd [nM] | Binder |
| --- | --- |
| 1 | BIWA 4 (antibody, human IgG1, kappa, V domains shown) VH: EVQLVESGGGLVKPGGSLRLSCAASGFTFSSYDMSWVRQAPGKGLEWVSTISSGGSYTYYLDSIKGRFTISRDNAKNSLYLQMNSLRAEDTAVYYCARQGLDYWGRGTLVTVSS VL: EIVLTQSPATLSLSPGERATLSCSASSSINYIYWYQQKPGQAPRLLIYLTSNLASGVPARFSGSGSGTDFTLTISSLEPEDFAVYYCLQWSSNPLTFGGGTKVEIKR |
| 1.8 | BIWI 1 (antibody, human IgG1, kappa, V domains shown, maytansinoid DM1 linked by a disulfide bond through the SPP-derived thiopentanoate linker; DM1/MAb ratio 3.1 (average for the whole antibody); attachment residues not stated) VH: EVQLVESGGGLVKPGGSLRLSCAASGFTFSSYDMSWVRQAPGKGLEWVSTISSGGSYTYYLDSIKGRFTISRDNAKNSLYLQMNSLRAEDTAVYYCARQGLDYWGRGTLVTVSS VL: EIVLTQSPATLSLSPGERATLSCSASSSINYIYWYQQKPGQAPRLLIYLTSNLASGVPARFSGSGSGTDFTLTISSLEPEDFAVYYCLQWSSNPLTFGGGTKVEIKR |
